Each binder was assayed against human MDR1 (multidrug resistance protein 1) (human, UniProt P08183 1-1280) (assay: cell-based or functional assay).

| Binder | IC50 of vincristine on N6/ADR cells with antibody [nM] |
| --- | --- |
| B1.223 (antibody, human IgG1, V domains shown) VH: EVKLVESGGALVKPGGSLKLSCAASGFTFSNYAMSWVRQTPEKRLEWVATISSGGSYTYYPDSVKGRFTISRDNAKTTLYLQMSGLRSEDTALYYCAKFSNYGRFASWGQGTLVTVSS VL: DIQMIQSPLSLPVSLGDQASISCRSSQSIVHSSGNTYLEWYLQKPGQSPRLLIYKVSNRFFGVPDRISGSGSGTDFTLRISRVEAEDLGVYYCFQGSHVPYTFGGGTKLELK | 0.0068 |
| B1.264 (antibody, human IgG1, V domains shown) VH: EVKLVESGGALVKPGGSLKLSCAASGFTFSNYAMSWVRQTPEKRLEWVATISSGGSNTYYPDSVMGRFTISRDNAKNTLYLQMSSLRSEDTALYYCARYSNYGWFAYWGQGTLVTVSS VL: DVVMTQTPLSLPVSLGDQASISCRSSQSIVHSNGNTYLEWYLQKPGQSPKLLIYKVSNRFSGVPDRFSGSGSGTDFTLKISRVEAEDLGVYYCFQGSLVPRTFGGGTKLEIK | 0.0192 |
| B1.85 (antibody, human IgG1, V domains shown) VH: EVQLVESGGALVKPGGSLKLSCAASGFTFSNYGVSWVRQTPEKRLEWVATISSSGSYTYYPDIVRGRFTISRDNAKNTLYLQMSSLRSEDTAFYYCARGYGNFAWFAYWGQGTLVTVSA VL: DIQMTQSPLSLPVSLGDQASISCRSSQSIVHSTGNTYLEWYLQKPGQSPKLLIYKVSNRFSGVPDRFSGSGSGTDFTLKINRVEAEDLGVYYCFQGSHVPYTFGGGTKLEIK | 0.0345 |
| KB1.273A (antibody, human IgG1, V domains shown) VH: QVQLQQSGPELVKTGASVKISCKASGYSFSNYYIHWVKQSHGKSLEWIGFISCYNGATFYNQKFKGKATFTVDTSSSTAYMKFNSLTFEDSAVYYCARLPIQFGNFYPMDYWGQGTSVTVSS VL: QIVLTQSPAIMSASLGERVTMTCTASSSVSSSYLHWYQQKPGSSPKLWIYSTSNLASGVPARFSGSGSGTSYSLTISSMEAEDAATYYCHQYHRSPPTFGAGTKLELK | 0.0299 |
| B1.225 (antibody, human IgG1, V domains shown) VH: EVQLVESGGALVKPGGSLKLSCAASGFTFSNYGMSWVRQTPEKRLEWVATISSGGSYTYYPDTVKGRFTISRDNAKNTLHLQMSSLRSEDTALYYCARRGTNDAWFGYWGQGTLVTVSA VL: DVVMTQTPLSLPVSLGDQASISCRFSQSIVHSNGNTYLEWYLQKPGQSPKLLIYKVSNRFFGVPDRFSGSGSGTDFTLKISRVEAEDLGVYFCFQGSHVPQYTFGGGTKLEIK | 0.0035 |
| KB1.269A (antibody, human IgG1, V domains shown) VH: EVQLVESGGASVKPGGSLKLSCAASGFTFSNYAMSWVRQTPEKRLEWVATISSGGSYTYYLDSVKGRFTISRDNAKNTLYLQMSSLRSEDTALYYCARYYVYDAWFAYWGQGTLVTVSA VL: DVVMTQTPLSLPVSLGDQASISCRSSQSIVHSTGNTYLEWYLQKPGQSPKLLIYKVSNRFSGVPDRFSGSGSGTDFTLKISRVEAEDLGVFYCFQGSHVPRTFGGGTKLEIK | 0.0323 |
| B1.276 (antibody, human IgG1, V domains shown) VH: EVKLVESGGALVKPGGSLKLSCAASGFTFRNYAMSWVRQTPEKRLEWVATISSDGSYTYHPDSVKGRFTISRDNARNTLYLQMSSLRSEDTAMYSCTRQGNWGRTWFTYWGQGTLVTVSS VL: QIVLTQSPAIMSASPGEKVTMTCRASSSVSSSYLHWYQQKSGASPKLWIYSTSSLASGVPARFSGSGSGTSYSLTISSVEAEDAATYYCQQYSGYPLTFGAGTKLELK | 0.029 |
| B1.27 (antibody, human IgG1, V domains shown) VH: EVKLVESGGGLVKPGGSLKLSCAASGFTFSSYTMSWVRQTPEKRLEWVATVSSGGGNTYYPDSVKGRFTISRDNAKNNLYLQMSSPRSEDTALYYCARYGNYGWFTYWGQGTLVTVSS VL: DVVMTQTPLSLPVSLGDQASISCRSSQNIVHSTGNTYLDWYLQKPGQSPKLLIYKVSNRFSGVPDRFSGSGSGTDFTLKISRVEAEDLGVYFCFQGSHIPRTFGGGTKLEIK | 2.83 |
| B1.30 (antibody, human IgG1, V domains shown) VH: EVMLVESGGGLVKPGGSLKLSCAASGFTFSSYTMSWVRQTPEKRLEWVATISSGGGNTYYPDSVKGRFTISRDNAKNNLYLQMSSLRSEDTALYYCARYYRYDAWFAYWGQGTLVTVSA VL: DVLMTQTPLSLPVSLGDQASISCRSSQSIVHSTGNTYLEWYLQKPGQSPKLLIYKVSNRFSGVPDRFSGSGSGTDFTLKISRVETEDLGVYYCFQGSHVPRTFGGGTKLEIK | 0.0522 |
| B1.226 (antibody, human IgG1, V domains shown) VH: EVQLVESGGALVKPGGSLKLSCAASGFTFSNYAMSWVRQTPETRLEWVATISSGGSYTYYPDSVKGRFTISRDNAKNTLYLQMSSLRSEDTALYYCARYSNLAWFAYWGQGTLVTVSA VL: DVVMTQTPLSLPVSLGDQASISCRSSQSIVHSNGNTYLDWYLQKPGQSPKFMIYKVSNRFSGVPDRFSGSGSGTDFTLKISRVEAEDLGVYYCFQGSHVPYTFGGGTKLEIK | 0.0138 |
| B1.263 (antibody, human IgG1, V domains shown) VH: EVKLVESGGGLVKPGGSLKLSCAASGFTFSNYGMSWVRQTPEKRLEWVAAISSNGAYTYFPDTVKGRFTISRDNAKNTLYLQMNSLRSEDTALYYCTRRGWDTWFAYWGQGTLVTVSS VL: DVVMTQTPLSLPVSLGDQASISCRSSQNIVHSTGNTYLEWYLQKPGQSPKLLIYKVSNRFSGVPDRFSGSGSGTDFTLKISRVEAEDLGVYYCFQGSHVPWTFGGGTKLEIK | 0.0062 |
| B1.39 (antibody, human IgG1, V domains shown) VH: EVMLVESGGGLVKPGGSLKLSCAASGFTFSSYTMSWVRQTPEKRLEWVATVSSGGGNTYYPDSVKGRFTISRDNAKNNLYLQMSSLRSEDTALYYCARYGNYGWFTYWGQGTLVTVSA VL: DVLMTQTPLSLPVSLGDQASISCRSSQSILHSNGNTYLEWYLQKPGQSPKLLIYKVSNRFSGVPDRFSASGSGTDFTLKISRVEAEDLGIYYCFQGSHVPRTFGGGTKLEIK | 0.0909 |
| B1.89 (antibody, human IgG1, V domains shown) VH: KVQLVESGGALVKPGGSLKLSCAASGFTFSNYAMSWVRQTPEKRLEWVATISSSGSYTYFPDSVKGRFTISRDNAKNTLYLQMSSLRSEDTALYYCARYGYDEAWFASWGQGTLVTVSA VL: DVLMTQTPLSLPVSLGDQASISCRSSQTIVHSNGNTYLEWYLQKPGQSPKLLIYKVSKRFSGVPDRFSGSGSGTDFTLKISRVEAEDLGVYYCFQGSHFPRTFGGGTKLEIK | 0.0622 |
| B1.275 (antibody, human IgG1, V domains shown) VH: EVMLVESGGALVKPGGSLKVSCAASGFTFSNYAMSWVRQSPEMRLEWVATISSGGTNTYYPDSVKGRFTISRDNARNTLYLQMSSLRSKDTAMYYCARYSNYGWFPYWGQGTTLTVSS VL: DVVMTQTPLSLPVSLGDQASISCRSSQTIVHSDGYTYLEWYLQKPGQSPKLLIYKVSNRFSGVPDRFSGSGSGTDFTLRISRVEAEDLGVYYCFQGSHVPYTFGGGTKLEIK | 0.0781 |
| B1.278 (antibody, human IgG1, V domains shown) VH: QVQLQQSGPELVKPGASVKISCKASGYSFTGYFMNWVMQSHGKSLEWIGRINPYNGDTFYNQKFKGKATLTVDKSSGTAHMELRSLASEDSAVYYCARCYYYGSSSYGMDYWGQGTSVTVSS VL: QIVLTQSPASLAVSLGQRATISCRASESVHNYGVSFMNWFQQRPGQPPKLLIHAASHQGSGVPARFTGSGSGTDFSLNIHPMEEDDIAMYFCQQSKEVPLTFGAGTKLKLK | 0.029 |

Source: US20230203156A1 (WILLIAM ROBERT ARATHOON LIVING TRUST DATED AUGUST 29 2016, published 2023)
